Assay results published in patent US20190185581A1 (University of California, published 2019).

T1: catalytic domain of MMP-9 (cdMMP-9) (human, UniProt P14780 107-443, limits assumed)
T1 sequence: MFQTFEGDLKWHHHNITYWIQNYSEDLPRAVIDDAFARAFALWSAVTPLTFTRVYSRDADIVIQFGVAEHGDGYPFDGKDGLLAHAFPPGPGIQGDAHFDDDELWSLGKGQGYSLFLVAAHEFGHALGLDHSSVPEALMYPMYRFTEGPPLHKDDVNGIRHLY

B1: Fab 33D2 (Fab, V domains shown)
VH: EVQLVESGGGLVQPGGSLRLSCAASGFNLYYSSIHWVRQAPGKGLEWVAYISSYSGYTSYADSVKGRFTISADTSKNTAYLQMNSLRAEDTAVYYCARSKYGPASRQLASRTSWSGPRGKYGMDYWGQGTLVTVSS
VL: DIQMTQSPSSLSASVGDRVTITCRASQSVSSAVAWYQQKPGKAPKLLIYSASSLYSGVPSRFSGSRSGTDFTLTISSLQPEDFATYYCQQAYGSYLITFGQGTKVEIKR
notes: not shown: His tag at the C-terminus of the heavy chain
B2: Fab R2C14 (Fab, V domains shown)
VH: EVQLVESGGGLVQPGGSLRLSCAASGFNIYSSSIHWVRQAPGKGLEWVASIYSYSGYTYYADSVKGRFTISADTSKNTAYLQMNSLRAEDTAVYYCARVSNRYNRSSASIAGLQLFRPYGMDYWGQGTLVTVSS
VL: DIQMTQSPSSLSASVGDRVTITCRASQSVSSAVAWYQQKPGKAPKLLIYSASSLYSGVPSRFSGSRSGTDFTLTISSLQPEDFATYYCQQSSYSLITFGQGTKVEIKR
B3: MMP-14 catalytic domain mutant F260A (enzyme)
chain: not shown
notes: also called F260A MMP-14 mutant
B4: Fab 3A2 (Fab, V domains shown)
VH: EVQLVESGGGLVQPGGSLRLSCAASGFNLSSSSMHWVRQAPGKGLEWVASIYPSYSYTYYADSVKGRFTISADTSKNTAYLQMNSLRAEDTAVYYCARVKLQKDKSHQWIRNLVATPYGRYVMDYWGQGTLVTVSS
VL: DIQMTQSPSSLSASVGDRVTITCRASQSVSSAVAWYQQKPGKAPKLLIYSASSLYSGVPSRFSGSRSGTDFTLTISSLQPEDFATYYCQQYGYPITFGQGTKVEIKR
notes: also called R3C9; not shown: His tag at the C-terminus of the heavy chain

Legend:
[1] = target: T2, catalytic domain of MMP-14 (cdMMP-14) (human, UniProt P50281 114-287, limits assumed, biotinylated (Sulfo-NHS-LC-Biotin) where immobilised via streptavidin); assay: ELISA, Fab titrated on immobilised MMP-14 catalytic domain, anti-Fab-HRP
T2 construct: also called matrix metalloproteinase-14 catalytic domain; wild-type MMP-14
Procedure: (§1) Bound Fabs were detected using the anti-Fab-HRP conjugate. The half-maximal effective concentration (EC₅₀) was calculated from a four-parametric logistic curve-fitting analysis.

[2] = target: T2, catalytic domain of MMP-14 (cdMMP-14); assay: cell-based or functional assay
[3] = target: T1, catalytic domain of MMP-9 (cdMMP-9); assay: ELISA on MMP-2, MMP-9 and MMP-14 catalytic domains
[4] = target: T1, catalytic domain of MMP-9 (cdMMP-9); assay: competitive ELISA: Fab R2C14 at its IC50 concentration pre-incubated with soluble cdMMP-9, then added to a plate coated with 100 nM cdMMP-14; anti-Fab-HRP
[5] = target: T2, catalytic domain of MMP-14 (cdMMP-14); assay: cell-based or functional assay; remark: listed apart in the source
[6] = target: T2, catalytic domain of MMP-14 (cdMMP-14); assay: ELISA, Fab titrated on immobilised biotin-cdMMP-14, anti-Fab-HRP
Fab 3A2 = target: B4; assay: competitive ELISA: 10 nM Fab 3A2 pre-incubated with soluble MMP-14 mutant, then captured on immobilised wild-type MMP-14; anti-Fab-HRP
Procedure: as §1

[7] = target: T2, catalytic domain of MMP-14 (cdMMP-14); assay: summary sentence on the Examples; method not given
[8] = target: T2, catalytic domain of MMP-14 (cdMMP-14); assay: surface plasmon resonance (Biacore), MMP-14 immobilised on the chip, Fab 3A2 injected at 10 nM; table beside the sensorgrams
[9] = target: T2, catalytic domain of MMP-14 (cdMMP-14); assay: summary sentence on the Examples; enzyme inhibition
[10] = target: B3; assay: competitive ELISA: 10 nM Fab 3A2 incubated with the mutant, then captured on immobilised wild-type MMP-14
Procedure: as §1

[11] = target: T2, catalytic domain of MMP-14 (cdMMP-14); assay: SPR (Biacore), KD from koff/kon
[12] = target: catalytic domain of MMP-2 (human, UniProt P08253 115-449, limits assumed, biotinylated (Sulfo-NHS-LC-Biotin)); assay: ELISA, purified Fab at 50, 100, 250 and 500 nM on immobilised MMP catalytic domain, anti-Fab-HRP, OD450
Sequence of catalytic domain of MMP-2 (P08253 other isoform, or with tags, fused parts or gaps limits assumed): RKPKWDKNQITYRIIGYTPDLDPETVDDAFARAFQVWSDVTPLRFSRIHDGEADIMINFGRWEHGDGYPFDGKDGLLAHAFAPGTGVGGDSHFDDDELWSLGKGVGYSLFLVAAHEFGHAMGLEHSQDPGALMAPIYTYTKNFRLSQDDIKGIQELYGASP

[13] = target: T1, catalytic domain of MMP-9 (cdMMP-9); assay: as above
[14] = target: B3; assay: cell-based or functional assay
[15] = target: MMP-14 catalytic domain mutant N231A (human, UniProt P50281 114-287, limits assumed); assay: cell-based or functional assay
[16] = target: MMP-14 catalytic domain mutant T190A (human, UniProt P50281 114-287, limits assumed); assay: cell-based or functional assay
[17] = target: MMP-14 catalytic domain mutant F204A (human, UniProt P50281 114-287, limits assumed); assay: cell-based or functional assay
[18] = target: MMP-14 catalytic domain mutant F198A (human, UniProt P50281 114-287, limits assumed); assay: cell-based or functional assay
[19] = target: MMP-14 catalytic domain mutant Y203A (human, UniProt P50281 114-287, limits assumed); assay: cell-based or functional assay
[20] = target: T2, catalytic domain of MMP-14 (cdMMP-14); assay: SPR (Biacore), MMP-14 amine-coupled to the chip, Fab as analyte, 25 °C
[21] = target: T2, catalytic domain of MMP-14 (cdMMP-14); assay: surface plasmon resonance (Biacore), MMP-14 immobilised on the chip, Fab 3A2 injected at 20 nM; table beside the sensorgrams
[22] = target: T2, catalytic domain of MMP-14 (cdMMP-14); assay: surface plasmon resonance (Biacore), MMP-14 immobilised on the chip, Fab 3A2 injected at 15 nM; table beside the sensorgrams

Binder: B1
- EC50 [1]: 120 nM
- IC50 by FRET Assay [2]: 420 nM
- Selectivity over MMP-2/-9 (ratio of Fab concentrations giving the same ELISA signal, MMP-2/-9 against MMP-14) [3]: 9.6 fold

Binder: B2
- binding result [4]: no binding (tested: about 4000 nM (log10(nM) about 3.6))
- Inhibition potency (FRET IC50) [5]: 10 nM
- EC50 [6]: 1200 nM

Binder: B3
- binding result (Fab 3A2): no binding (tested: about 2000 nM (log10(nM) 3.3))

Binder: B4
- Inhibition potency (FRET IC50) [5]: 9.7 nM
- Kd [7]: 4.85 nM
- Kd [8]: 1.74 nM
- koff [8]: 0.000667 s⁻¹
- kon [8]: 383000 M⁻¹ s⁻¹
- EC50 [6]: 3.8 nM
- Ki [9]: 10 nM
- EC50 [1]: 3.8 nM
- IC50 by FRET Assay [2]: 9.7 nM
- binding result [10]: no binding (tested: 0-2,000 nM mutant)
- Kd [11]: 4.76 nM
- binding result [12]: no binding (tested: 500 nM)
- binding result [13]: no binding (tested: 500 nM)
- inhibition (%) of peptide cleavage: 50 nM MMP-14 mutant, 5 uM Fab 3A2, 1 uM quenched fluorescent substrate [14]: 0%
- inhibition (%) of peptide cleavage: 50 nM MMP-14 mutant, 5 uM Fab 3A2, 1 uM quenched fluorescent substrate [15]: 90%
- inhibition (%) of peptide cleavage: 50 nM MMP-14 mutant, 5 uM Fab 3A2, 1 uM quenched fluorescent substrate [16]: 95%
- inhibition (%) of peptide cleavage: 50 nM MMP-14 mutant, 5 uM Fab 3A2, 1 uM quenched fluorescent substrate [17]: 96%
- inhibition (%) of peptide cleavage: 50 nM MMP-14 mutant, 5 uM Fab 3A2, 1 uM quenched fluorescent substrate [18]: 98%
- inhibition (%) of peptide cleavage: 50 nM MMP-14 mutant, 5 uM Fab 3A2, 1 uM quenched fluorescent substrate [19]: 98%
- koff [20]: 0.00179 s⁻¹
- kon [20]: 368000 M⁻¹ s⁻¹
- Kd [21]: 9.17 nM
- koff [21]: 0.00347 s⁻¹
- kon [21]: 378000 M⁻¹ s⁻¹
- Kd [22]: 3.64 nM
- koff [22]: 0.00125 s⁻¹
- kon [22]: 344000 M⁻¹ s⁻¹
